# Test results published in IntAct's records for PubMed 19805355.
# B1: ATP-sensitive inward rectifier potassium channel 11 (Homo sapiens), Q14654 (parent)
# chain: MLSRKGIIPEEYVLTRLAEDPAKPRYRARQRRARFVSKKGNCNVAHKNIREQGRFLQDVFTTLVDLKWPHTLLIFTMSFLCSWLLFAMAWWLIAFAHGDLAPSEGTAEPCVTSIHSFSSAFLFSIEVQVTIGFGGRMVTEECPLAILILIVQNIVGLMINAIMLGCIFMKTAQAHRRAETLIFSKHAVIALRHGRLCFMLRVGDLRKSMIISATIHMQVVRKTTSPEGEVVPLHQVDIPMENGVGGNSIFLVAPLIIYHVIDANSPLYDLAPSDLHHHQDLEIIVILEGVVETTGITTQARTSYLADEILWGQRFVPIVAEEDGRYSVDYSKFGNTVKVPTPLCTARQLDEDHSLLEALTLASARGPLRKRSVPMAKAKPKFSISPDSLS
# Variants of: B1
# Conditions: with ank2_human ANK2, Q01484
# ank2_human ANK2, Q01484, sequence (Q01484 whole entry): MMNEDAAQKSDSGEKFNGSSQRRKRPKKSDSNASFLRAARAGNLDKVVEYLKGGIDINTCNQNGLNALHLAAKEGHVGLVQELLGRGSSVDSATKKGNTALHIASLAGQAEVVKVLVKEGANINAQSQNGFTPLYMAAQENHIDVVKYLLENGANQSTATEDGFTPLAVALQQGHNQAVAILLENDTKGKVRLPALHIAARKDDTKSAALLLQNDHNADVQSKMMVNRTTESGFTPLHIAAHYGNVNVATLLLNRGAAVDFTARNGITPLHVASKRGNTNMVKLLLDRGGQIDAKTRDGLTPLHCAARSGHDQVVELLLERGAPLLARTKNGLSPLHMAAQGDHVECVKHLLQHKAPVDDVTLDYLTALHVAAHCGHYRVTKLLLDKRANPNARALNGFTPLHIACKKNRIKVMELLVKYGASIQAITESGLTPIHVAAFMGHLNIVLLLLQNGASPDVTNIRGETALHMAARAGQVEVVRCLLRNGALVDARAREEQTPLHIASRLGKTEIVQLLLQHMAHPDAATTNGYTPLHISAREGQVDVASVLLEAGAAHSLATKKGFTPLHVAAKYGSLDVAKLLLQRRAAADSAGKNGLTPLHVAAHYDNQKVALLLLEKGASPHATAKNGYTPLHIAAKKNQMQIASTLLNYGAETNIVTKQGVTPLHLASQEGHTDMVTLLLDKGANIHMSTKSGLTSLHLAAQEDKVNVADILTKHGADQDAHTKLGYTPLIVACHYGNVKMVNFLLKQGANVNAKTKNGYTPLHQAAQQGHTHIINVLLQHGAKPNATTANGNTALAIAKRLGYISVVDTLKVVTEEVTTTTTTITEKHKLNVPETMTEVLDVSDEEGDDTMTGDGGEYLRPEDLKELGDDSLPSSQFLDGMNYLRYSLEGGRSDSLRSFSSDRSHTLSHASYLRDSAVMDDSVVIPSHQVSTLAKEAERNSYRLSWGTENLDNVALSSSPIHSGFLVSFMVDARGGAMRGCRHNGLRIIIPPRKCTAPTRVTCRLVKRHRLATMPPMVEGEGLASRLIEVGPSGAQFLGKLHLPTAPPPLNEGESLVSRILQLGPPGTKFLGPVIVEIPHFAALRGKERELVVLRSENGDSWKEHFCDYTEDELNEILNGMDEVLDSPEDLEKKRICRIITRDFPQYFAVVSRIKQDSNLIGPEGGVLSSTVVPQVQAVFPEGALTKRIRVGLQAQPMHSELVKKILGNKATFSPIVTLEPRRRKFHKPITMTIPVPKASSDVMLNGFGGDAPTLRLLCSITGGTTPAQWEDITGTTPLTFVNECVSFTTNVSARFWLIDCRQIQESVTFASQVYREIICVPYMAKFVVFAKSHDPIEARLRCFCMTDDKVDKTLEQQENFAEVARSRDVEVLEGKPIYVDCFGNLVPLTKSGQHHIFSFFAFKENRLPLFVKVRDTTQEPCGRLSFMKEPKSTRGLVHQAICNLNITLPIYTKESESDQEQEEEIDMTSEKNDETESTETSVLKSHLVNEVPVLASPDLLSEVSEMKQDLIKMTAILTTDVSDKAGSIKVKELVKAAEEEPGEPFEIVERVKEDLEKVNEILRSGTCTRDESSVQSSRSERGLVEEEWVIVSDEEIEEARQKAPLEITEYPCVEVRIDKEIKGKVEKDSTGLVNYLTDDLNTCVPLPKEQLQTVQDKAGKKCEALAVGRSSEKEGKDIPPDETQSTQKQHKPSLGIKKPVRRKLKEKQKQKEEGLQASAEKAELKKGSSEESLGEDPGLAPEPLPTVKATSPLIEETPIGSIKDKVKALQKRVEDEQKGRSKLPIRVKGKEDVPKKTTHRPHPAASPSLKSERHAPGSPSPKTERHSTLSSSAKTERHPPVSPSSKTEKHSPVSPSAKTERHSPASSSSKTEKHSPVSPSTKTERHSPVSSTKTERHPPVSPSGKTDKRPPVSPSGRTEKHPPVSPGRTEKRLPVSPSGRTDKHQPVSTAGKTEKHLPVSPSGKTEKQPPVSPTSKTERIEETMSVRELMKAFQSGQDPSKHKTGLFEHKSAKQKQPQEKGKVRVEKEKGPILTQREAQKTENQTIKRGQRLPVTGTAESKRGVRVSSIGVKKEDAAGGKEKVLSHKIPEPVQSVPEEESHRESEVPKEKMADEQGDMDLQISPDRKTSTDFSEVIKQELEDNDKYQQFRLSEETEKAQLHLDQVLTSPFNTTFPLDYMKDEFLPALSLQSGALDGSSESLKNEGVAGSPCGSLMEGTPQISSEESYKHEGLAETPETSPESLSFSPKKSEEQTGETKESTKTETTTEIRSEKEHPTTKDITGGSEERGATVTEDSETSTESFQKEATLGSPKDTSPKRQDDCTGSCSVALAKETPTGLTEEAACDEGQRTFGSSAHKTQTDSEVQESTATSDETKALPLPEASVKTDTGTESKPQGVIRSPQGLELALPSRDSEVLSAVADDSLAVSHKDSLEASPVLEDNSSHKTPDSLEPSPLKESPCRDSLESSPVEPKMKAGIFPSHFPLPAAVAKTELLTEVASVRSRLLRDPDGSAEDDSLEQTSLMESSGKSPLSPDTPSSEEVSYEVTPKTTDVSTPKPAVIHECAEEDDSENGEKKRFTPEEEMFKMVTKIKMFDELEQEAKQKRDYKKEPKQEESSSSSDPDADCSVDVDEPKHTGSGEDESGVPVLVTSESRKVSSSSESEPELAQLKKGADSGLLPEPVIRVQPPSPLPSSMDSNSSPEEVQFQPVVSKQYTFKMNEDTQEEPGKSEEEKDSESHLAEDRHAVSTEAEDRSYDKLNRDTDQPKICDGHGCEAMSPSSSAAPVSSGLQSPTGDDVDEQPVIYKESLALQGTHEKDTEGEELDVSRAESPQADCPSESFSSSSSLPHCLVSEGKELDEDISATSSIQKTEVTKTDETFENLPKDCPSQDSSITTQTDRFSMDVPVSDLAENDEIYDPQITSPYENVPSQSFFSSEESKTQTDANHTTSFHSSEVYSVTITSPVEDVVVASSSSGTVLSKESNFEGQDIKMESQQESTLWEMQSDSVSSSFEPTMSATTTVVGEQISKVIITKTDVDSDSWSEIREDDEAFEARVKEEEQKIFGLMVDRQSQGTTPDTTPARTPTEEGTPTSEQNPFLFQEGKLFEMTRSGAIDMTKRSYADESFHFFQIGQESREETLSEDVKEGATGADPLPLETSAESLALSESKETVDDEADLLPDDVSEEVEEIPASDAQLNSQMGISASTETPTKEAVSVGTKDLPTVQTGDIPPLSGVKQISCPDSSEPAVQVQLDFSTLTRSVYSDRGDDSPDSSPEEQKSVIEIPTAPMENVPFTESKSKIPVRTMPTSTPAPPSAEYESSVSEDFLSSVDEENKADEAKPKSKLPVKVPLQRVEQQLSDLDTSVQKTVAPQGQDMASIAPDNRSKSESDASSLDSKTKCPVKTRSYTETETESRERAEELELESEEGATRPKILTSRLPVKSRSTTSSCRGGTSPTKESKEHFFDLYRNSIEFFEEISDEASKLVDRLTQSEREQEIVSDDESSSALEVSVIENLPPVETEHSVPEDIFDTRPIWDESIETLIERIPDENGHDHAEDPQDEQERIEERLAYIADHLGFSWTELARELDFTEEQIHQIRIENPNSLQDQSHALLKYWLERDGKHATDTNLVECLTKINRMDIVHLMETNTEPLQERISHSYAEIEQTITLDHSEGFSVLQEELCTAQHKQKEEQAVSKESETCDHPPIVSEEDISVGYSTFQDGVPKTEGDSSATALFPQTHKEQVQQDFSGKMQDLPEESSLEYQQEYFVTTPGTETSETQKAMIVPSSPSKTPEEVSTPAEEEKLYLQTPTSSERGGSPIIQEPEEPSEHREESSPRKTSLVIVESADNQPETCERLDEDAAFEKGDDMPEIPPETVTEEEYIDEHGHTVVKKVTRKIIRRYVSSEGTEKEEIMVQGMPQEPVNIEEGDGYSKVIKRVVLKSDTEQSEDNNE
row,Variant,effect of a mutation on the interaction
1,E321K,disrupting interaction
2,D323K,disrupting interaction
3,E322K,disrupting interaction

# Variants of: B1
# Conditions: with ank2_human ANK2, Q01484
# Remark: another data set of the same source
row,Variant,effect of a mutation on the interaction
1,E322K,decreasing interaction
